Assay: yeast display, Sf9 membrane polyspecificity reagent, FACS + sequencing; frameworks hold sequencing errors
How it was run: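 Genes from sorted yeast were amplified by colony PCR, read by MiSeq 2 × 250 sequencing and filtered on CDR length. These cells carried a synthetic nanobody library in Saccharomyces cerevisiae BJ5465 and were sorted by FACS into low and high (top ~1%) gates on anti-HA and streptavidin fluorescence. Polyreactivity is labelled according to the gate of origin.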

| Sequence | polyreactivity (PSR sort gate) |
| --- | --- |
| QVQLVESGGGLVQAGGSLRLSCAASGSIFSGYMGWYRQAPGKDRELVATITSGGSTYADSVKGRFTISRDNAKNSVYLQMNILKPEDTAVYYCARPRPVIQYSGLHYDYWGQGTEVTVSS | low polyreactivity |
| QVQLVESGGGLVQAGGSLRLSCAASGSIFSGYTMGWYRQAPGKERELVAGISYRGGSTYYADSVKGRFTISRDNAKNTVYLQMNSLKPEDTAVYYCAARHSTLRGYWGQGTQVTVSS | high polyreactivity |
| QVQLVESGGGLVQAGGSLRLSCAASGSIFSGYVMGWYRQAPGKERELVAAITWSGGRTYYADSVKGRFTISRDNAKNTVYLQMNSLKPEDTAVYYCAKRKIKSSGYYYWGQGTQVTVSS | high polyreactivity |
| QVQLVESGGGLVQAGGSLRLSCAASGSIFSINTMGWYRQAPGKERELVAAITRSGSGTYYADSVKGRFTISRDNAKNTVYLQMNSLKPEDTAVYYCAKSTAVKPYAYRESGFIYDYWGQGTQVTVSS | low polyreactivity |
| QVQLVESGGGLVQAGGSLRLSCAASGSIFSINTMGWYRQAPRTERELVATITWSVGSTNYADSVKGRFTISRDNAKNSVYLQMNSLKPVDTAVYYCNAESFYDYNYWGEGTQVTVSS | low polyreactivity |
| QVQLVESGGGLVQAGGSLRLSCAASGSIFSIYAMGWYRQAPGKERDFVASITVTDGSTYYADSVKGRFTISRDIAKNTVYLQMNSLKPEDTAVYYCFADGWYALYEWLAVSGYYWGQGTQVTVST | low polyreactivity |
| QVQLVESGGGLVQAGGSLRLSCAASGSIFSKNAMGWYRQAPGKERELVAAITGGGSTYYADSVKGRFTISRDNAKNTVYLQMNSLKPEDTAVYYCAAEFYVWGQGTQVTVSS | low polyreactivity |
| QVQLVESGGGLVQAGGSLRLSCAASGSIFSKYAMGWYRQAPGKEREFVAAISRSGGRTYYADSVKGRFTISRDNAKNTVYLQMNSLKPEDTAVYYCAAYPYNPRRRTEGDYWGQGTQVTVSS | high polyreactivity |
| QVQLVESGGGLVQAGGSLRLSCAASGSIFSLNAMGWYRQAPGKERELVAAISGRGGSTYYADSVKGRFTISRDNAKNTVYLQMNSLKPEDTAVYYCAARFSRTFLGYYYWGQGTQVTVSS | high polyreactivity |
| QVQLVESGGGLVQAGGSLRLSCAASGSIFSLYAMGWYRQAPGKERELVAAITTSGGRTYYADSVKGRFTISRDNAKNTVYLQMNSLKPVDTAVYYCAKRYSTPYLTDNFLSGPGYYYWGQGTQVTVSS | high polyreactivity |
| QVQLVESGGGLVQAGGSLRLSCAASGSIFSNYAMGWYRQAPGKERELVAAISRSGGSTRYADSVKGRFTISRDNAKNTVYLQMNSLKPEDTAVYYCNAVRYPRLMYYWGQGTQVTVSS | high polyreactivity |
| QVQLVESGGGLVQAGGSLRLSCAASGSIFSPNAMGWYRQAPGKERELVASITNGGSTYYADSVKGRFTISRDNAKNTVYLQMNSLKPEDTAVYYCAADHNETGLRVKVYEYDYWGQGTQVTVSS | low polyreactivity |
| QVQLVESGGGLVQAGGSLRLSCAASGSIFSPYAMGWYRQAPGKERELVAAIRWGGGCTYADSVKGRFTISRDNAKNTVYLQMNSVIPEDSAVYYCAARRRSLRGYDYWGQGTQVTVSS | high polyreactivity |
| QVQLVESGGGLVQAGGSLRLSCAASGSIFSPYAMGWYRQAPGKQRELVAAISKTGGSTYYADSVKGRFTISRDNAKNTVYLQMNSLKPEDTAVYYCATQGPRWVRHFDYWGQGTQVTVSS | low polyreactivity |
| QVQLVESGGGLVQAGGSLRLSCAASGSIFSRNAMGWYRQAPGKERELVAAISYSSGSTYYADSVKGRFTLSRDNAKNTVYLQMNSLKPEDTAVYYCAADTTKLQGAEVDFWGQGTQVTVSS | low polyreactivity |
| QVQLVESGGGLVQAGGSLRLSCAASGSIFSRNDMGWYRLAPGKERELVAAITSDDTSTYYADSVNGRFTISRDNAKNTVYLQMNSLKPEDTAVYYCAADYGNPFDYWGQGTQVTVSS | low polyreactivity |
| QVQLVESGGGLVQAGGSLRLSCAASGSIFSRYAMGWYRQAPAKERELVAASSSRGGSTYYADSVKGRFTISRDNAKNTVYLQMNSLKTEDTAVYYCAAQAPDTPSLDEGDFWGQGTQVTVSS | high polyreactivity |
| QVQLVESGGGLVQAGGSLRLSCAASGSIFSRYAMGWYRQAPGKERELVAAINGRGSRTYYADSVKGRFTISRDNAKNTVYLQMNSLKPEDTAVYYCAAGRSRLYGPRYFIYKYNYWGQGTQVTVSS | high polyreactivity |
| QVQLVESGGGLVQAGGSLRLSCAASGSIFSRYAMGWYRQAPGKERELVAAISQRAGSTYYADSVKGRFTISRDNAKNTVYLQMNSLKPEDTAVYYCAARRRGRKERGEDYWGQGTQVTVSS | high polyreactivity |
| QVQLVESGGGLVQAGGSLRLSCAASGSIFSRYAMGWYRQAPGKERELVAAISRGGSTNYADSVKGRFTISRDNAMNTVYLQMNSLKPEDTAVYYCAADGGKNPVRYDYWGQGTQVTVSS | high polyreactivity |
| QVQLVESGGGLVQAGGSLRLSCAASGSIFSRYAMGWYRQAPGKERELVAAISWRGGSTYYADSVKGRFTISRDNAKNTVYLQMTSLKPEDTAVYYCAAVYRGGPYYYWGQGTQVTVSS | high polyreactivity |
| QVQLVESGGGLVQAGGSLRLSCAASGSIFSRYAMGWYRQAPGKERELVAGISRGSSTYYADSVKGRFTISRDNAKNTVYLQMNSLKPEDTAVYYCARSGGSGGYYYWGQGTQVTVSS | low polyreactivity |

| Sequence | polyreactivity (PSR sort gate) |
| --- | --- |
| QVQLVESGGGLVQAGGSLRLSCAASGSIFSRYAMGWYSQAPGKELELVAAISWRGGSTYYADSVKGRFTISRDNAKNTVYLQMNSLKPEDTAVYYCAVRDYRPYSRFDFWGQGTQVTVSS | high polyreactivity |
| QVQLVESGGGLVQAGGSLRLSCAASGSIFSRYTLGWYRQAPGKVRELVARINSSGTSTYYADSLKGRFTISRDKAKNTVYLQMNSLKPEDTAVYYCARTSRHVRYDYWGQGTQVTVSS | low polyreactivity |
| QVQLVESGGGLVQAGGSLRLSCAASGSIFSSNAMGWYRQAPGKERELGAAISRSACSTYYADSVKGRFTISRDNAKNTVYLQMNSLKPEDTAVYYCNAVTRLGTYDYWGQGTQVTVSS | high polyreactivity |
| QVQLVESGGGLVQAGGSLRLSCAASGSIFSSNAMGWYRQAPGKERELVASIDGGPTTYADSVKGRFTISRDNAKNTVYLQMNSLKPEDTAVYFCKAVYAFNGYDYWGQGTQVTVSS | low polyreactivity |
| QVQLVESGGGLVQAGGSLRLSCAASGSIFSSNAMGWYRQAPGKERELVASIRRGGSTYYADSVKGRFTISRDNAMNTVYLQMNSLKPEDTAVYDCARRYVPWYATYDHWGQGTQVTVSS | high polyreactivity |
| QVQLVESGGGLVQAGGSLRLSCAASGSIFSSNTMGWYRQAPGKERELVAAITSGGGTYYADSVKGRFTISRDNAKNTVYLQMNSLKPEDTAVYYCAAQRDYKSSPSYDYWGQGTQVNVSS | low polyreactivity |
| QVQLVESGGGLVQAGGSLRLSCAASGSIFSSYALGWYRQAPGKERELVAAISQSGGDTYYADSVKGRFTISRDNAKNTVYLQMNSLKPEDTAVYYCAADWAYYVASYLYYTFDYWGQGTQVTVSS | low polyreactivity |
| QVQLVESGGGLVQAGGSLRLSCAASGSIFSSYAMGWYRQAPGKERELVAGISRRGGSTYYADSVKGRFTISRDNAKNTVYLLMNSLKPEDTAVYYCNARYAGSDLDYWGQGTQVTVSS | high polyreactivity |
| QVQLVESGGGLVQAGGSLRLSCAASGSIFSSYAMGWYRQAPGKERELVAVITSGDSTNYADSVKGRFTISRDNAKNTVYLQMNSLKPEDTAVYYCNADSYGGSDRYDYWGQGTQVTVSS | low polyreactivity |
| QVQLVESGGGLVQAGGSLRLSCAASGSIFSTNAMGWYRQAPGKERELVAAITYSGSLTYYADSVKGRFTISRDNAKNTVYLQMNSLKPEDTAVYYCAADTSWYSWWFDYWGQGTQVTVSS | low polyreactivity |
| QVQLVESGGGLVQAGGSLRLSCAASGSIFSTYAMGGYRQAPGKERELVAAIRDSGDRTYYADSVKGRFTISRDNAKNTVYLQMNSLKPDDTAVYYCYARWQEPLKYDYWGQGTPVTVSS | low polyreactivity |
| QVQLVESGGGLVQAGGSLRLSCAASGSIFSTYAMGWYRQAPGKERELVAAISSSGSTYYADSVKGRFTLSRDNAKNTVYLQMNSLKPEDTAVYYCAAGKYRRTSRYRYDSWGQGTQVTVSS | high polyreactivity |
| QVQLVESGGGLVQAGGSLRLSCAASGSIFSVNAMGWYRQAPGKERELVAGITISGGRTYYADSVKGRFTISRDNAKNTVYLEMNSLKPEDTAVYYCAADWVYPPGLKDSVHFGEYDYWGQGTQVTVSS | low polyreactivity |
| QVQLVESGGGLVQAGGSLRLSCAASGSIFSVNTKGWYRQAPGKERELVATIRTGDSTNYADSVKGLFTISRDNAKNTVYLQMNSLKPEDTAFYYCAAEWSSLNFDYWGQGTQVTVSS | low polyreactivity |
| QVQLVESGGGLVQAGGSLRLSCAASGSIFSVYAMGWYRPAPGKERELVASITNDGSTNYADSVKGRFTISRDNAKNTVYLQMNSLKPEDTAVYYCNADSYTKLDYWGQGTQVTVSS | low polyreactivity |
| QVQLVESGGGLVQAGGSLRLSCAASGSIFSVYAMGWYRQAPGKERELVATITWSGGRTYYADSVKGRFTISRDNAKNTVYLQMNSLKPEDTAVYYCAATSWWATTGFDYWGQGTQVTVSS | low polyreactivity |
| QVQLVESGGGLVQAGGSLRLSCAASGSIFSVYAMGWYRQAPGKERELVATITWSGGRTYYADSVKGRYTISRDNAKNTVYLQMNSLKPEDTAVYYCAATSWWATTGFDYWGQGTQVTVSS | low polyreactivity |
| QVQLVESGGGLVQAGGSLRLSCAASGSIFSWYAMGWYRQAPGKERELVAAISSRGGSTYYADSVKGRFTISRDNAKNTVYLQMNSLKPEDTAVYYCNTTYGYSTYWASGKYDYWGQGTQVTVSS | low polyreactivity |
| QVQLVESGGGLVQAGGSLRLSCAASGSIFSYYALGWYRQAPGKERELVAAISYSGGTTYYADSVKGRFTISRDNAKNTVYLQMNSLKPEDTAVYYCAAQWWWNRPVRYEYWGQGTQVTVSS | low polyreactivity |
| QVQLVESGGGLVQAGGSLRLSCAASGSIFSYYAMGWSRQAPGKERELVAAISRSGTSTYYADSVKGRFTISRDNAKNTVSLQMNSLKPEVNAVDYCNARWGFSRHRLMGYWGQGTQVSVSS | high polyreactivity |
| QVQLVESGGGLVQAGGSLRLSCAASGSIFSYYAMGWYRQAPGKERELVAAISKRGASTYYADSVKGRFTISRDNAKNTVYLQMNSLKPEDTAVYYCAARPYGGGRRSIYYYWGQGTQVTVSS | high polyreactivity |

Source: the nanobody polyreactivity screen of Harvey et al. (2022)
